Test results: the supplement of paper PMC10567573

B1: TCAP (parent)
chain: YQRVLPLPIFTPAKMGATKEERED

Variants of: B1
Experiment: protein stability index of a GFP-peptide fusion (GPS, HEK-293T) (PSI 1-6); higher = more stable
Details: c terminus: a fixed tail appended
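Further: lentivirally expressed fusions sorted by FACS into six bins by GFP to DsRed ratio, PSI derived from sequencing read proportions per bin multiplied by bin number.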

| Variant | protein stability index |
| --- | --- |
| YQRVLPLPIFTPAKMGATKNERED [E20N] | 1.89 |
| YQRVLPLPIFTPAKMGATKCERED [E20C] | 1.87 |
| YQRVLPLPIFTPAKMGATKYERED [E20Y] | 2.67 |
| YQRVLPLPIFTPAKMGATKLERED [E20L] | 2.13 |
| YQRVLPLPIFTPAKMGATKVERED [E20V] | 1.65 |
| YQRVLPLPIFTPAKMGATKIERED [E20I] | 2.04 |
| YQRVLPLPIFTPAKMGATKQERED [E20Q] | 1.73 |
| YQRVLPLPIFTPAKMGATKPERED [E20P] | 1.92 |
| YQRVLPLPIFTPAKMGATKTERED [E20T] | 2.13 |
| YQRVLPLPIFTPAKMGATKRERED [E20R] | 2.48 |
| YQRVLPLPIFTPAKMGATKGERED [E20G] | 2.23 |
| YQRVLPLPIFTPAKMGATKFERED [E20F] | 1.72 |
| YQRVLPLPIFTPAKMGATKHERED [E20H] | 2.78 |
| YQRVLPLPIFTPAKMGATKSERED [E20S] | 2.11 |
| YQRVLPLPIFTPAKMGATKWERED [E20W] | 2.2 |
| YQRVLPLPIFTPAKMGATKDERED [E20D] | 2.02 |
| YQRVLPLPIFTPAKMGATKMERED [E20M] | 2.4 |
| YQRVLPLPIFTPAKMGATKAERED [E20A] | 1.94 |
| YQRVLPLPIFTPAKMGATKKERED [E20K] | 1.81 |
| YQRVLPLPIFTPAKMGATKETRED [E21T] | 1.92 |
| YQRVLPLPIFTPAKMGATKEDRED [E21D] | 2 |
| YQRVLPLPIFTPAKMGATKEIRED [E21I] | 2.2 |
| YQRVLPLPIFTPAKMGATKESRED [E21S] | 1.91 |
| YQRVLPLPIFTPAKMGATKEFRED [E21F] | 1.95 |

| Variant | protein stability index |
| --- | --- |
| YQRVLPLPIFTPAKMGATKEKRED [E21K] | 2.1 |
| YQRVLPLPIFTPAKMGATKEWRED [E21W] | 2.41 |
| YQRVLPLPIFTPAKMGATKERRED [E21R] | 1.97 |
| YQRVLPLPIFTPAKMGATKEHRED [E21H] | 2.22 |
| YQRVLPLPIFTPAKMGATKEVRED [E21V] | 2.35 |
| YQRVLPLPIFTPAKMGATKEGRED [E21G] | 1.75 |
| YQRVLPLPIFTPAKMGATKECRED [E21C] | 2.28 |
| YQRVLPLPIFTPAKMGATKENRED [E21N] | 1.81 |
| YQRVLPLPIFTPAKMGATKELRED [E21L] | 2.06 |
| YQRVLPLPIFTPAKMGATKEMRED [E21M] | 1.93 |
| YQRVLPLPIFTPAKMGATKEQRED [E21Q] | 1.98 |
| YQRVLPLPIFTPAKMGATKEARED [E21A] | 1.91 |
| YQRVLPLPIFTPAKMGATKEPRED [E21P] | 2.54 |
| YQRVLPLPIFTPAKMGATKEYRED [E21Y] | 2.14 |
| YQRVLPLPIFTPAKEGATKEERED [M15E] | 2.64 |
| YQRVLPLPIFTPAKNGATKEERED [M15N] | 2.38 |
| YQRVLPLPIFTPAKGGATKEERED [M15G] | 2.31 |
| YQRVLPLPIFTPAKAGATKEERED [M15A] | 2.38 |
| YQRVLPLPIFTPAKKGATKEERED [M15K] | 2.38 |
| YQRVLPLPIFTPAKVGATKEERED [M15V] | 2.39 |
| YQRVLPLPIFTPAKSGATKEERED [M15S] | 2.92 |
| YQRVLPLPIFTPAKIGATKEERED [M15I] | 2.1 |
| YQRVLPLPIFTPAKPGATKEERED [M15P] | 2.69 |
| YQRVLPLPIFTPAKQGATKEERED [M15Q] | 2.26 |

| Variant | protein stability index |
| --- | --- |
| YQRVLPLPIFTPAKDGATKEERED [M15D] | 2.23 |
| YQRVLPLPIFTPAKRGATKEERED [M15R] | 2.21 |
| YQRVLPLPIFTPAKHGATKEERED [M15H] | 2.57 |
| YQRVLPLPIFTPAKFGATKEERED [M15F] | 2.14 |
| YQRVLPLPIFTPAKYGATKEERED [M15Y] | 2.21 |
| YQRVLPLPIFTPAKCGATKEERED [M15C] | 2.12 |
| YQRVLPLPIFTPAKTGATKEERED [M15T] | 2.05 |
| YQRVLPLPIFTPAKLGATKEERED [M15L] | 2.42 |
| YQRVLPLPIFTPAKWGATKEERED [M15W] | 1.72 |
| YQRVLPLPIFTPAKMGATKEERCD [E23C] | 2.19 |
| YQRVLPLPIFTPAKMGATKEERID [E23I] | 2.3 |
| YQRVLPLPIFTPAKMGATKEERHD [E23H] | 2.72 |
| YQRVLPLPIFTPAKMGATKEERKD [E23K] | 1.87 |
| YQRVLPLPIFTPAKMGATKEERAD [E23A] | 2.02 |
| YQRVLPLPIFTPAKMGATKEERDD [E23D] | 2.04 |
| YQRVLPLPIFTPAKMGATKEERGD [E23G] | 2 |
| YQRVLPLPIFTPAKMGATKEERFD [E23F] | 1.64 |
| YQRVLPLPIFTPPKMGATKEERED [A13P] | 3.8 |
| YQRVLPLPIFTPQKMGATKEERED [A13Q] | 1.95 |
| YQRVLPLPIFTPRKMGATKEERED [A13R] | 2.44 |
| YQRVLPLPIFTPSKMGATKEERED [A13S] | 2.53 |
| YQRVLPLPIFTPVKMGATKEERED [A13V] | 2.2 |
| YQRVLPLPIFTPNKMGATKEERED [A13N] | 1.67 |
| YQRVLPLPIFTPMKMGATKEERED [A13M] | 2.31 |

| Variant | protein stability index |
| --- | --- |
| YQRVLPLPIFTPWKMGATKEERED [A13W] | 2.02 |
| YQRVLPLPIFTPYKMGATKEERED [A13Y] | 1.86 |
| YQRVLPLPIFTPTKMGATKEERED [A13T] | 2.64 |
| YQRVLPLPIFTPAKMGAEKEERED [T18E] | 3.02 |
| YQRVLPLPIFTPAKMGAFKEERED [T18F] | 1.76 |
| YQRVLPLPIFTPAKMGAPKEERED [T18P] | 1.91 |
| YQRVLPLPIFTPAKMGARKEERED [T18R] | 2.4 |
| YQRVLPLPIFTPAKMGAYKEERED [T18Y] | 1.7 |
| YQRVLPLPIFTPAKMGAKKEERED [T18K] | 2.25 |
| YQRVLPLPIFTPAKMGAAKEERED [T18A] | 1.79 |
| YQRVLPLPIFTPAKMGAMKEERED [T18M] | 1.52 |
| YQRVLPLPIFTPAKMGAIKEERED [T18I] | 1.81 |
| YQRVLPLPIFTPAKMGAGKEERED [T18G] | 1.96 |
| YQRVLPLPIFTPAKMGAHKEERED [T18H] | 1.95 |
| YQRVLPLPIFTPAKMGAQKEERED [T18Q] | 2.39 |
| YQRVLPLPIFTPAKMGADKEERED [T18D] | 2.25 |
| YQRVLPLPIFTPAKMGALKEERED [T18L] | 2.56 |
| YQRVLPLPIFTPAKMGACKEERED [T18C] | 2.12 |
| YQRVLPLPIFTPAKMGANKEERED [T18N] | 2.06 |
| YQRVLPLPIFTPAKMGAVKEERED [T18V] | 2.38 |
| YQRVLPLPIFTPAKMGASKEERED [T18S] | 1.81 |
| YQRVLPLPIFTPAIMGATKEERED [K14I] | 1.61 |
